± gives the standard error. For some assays here: Variants at the floor of the assay were thinned out.
B1: glmS ribozyme (parent)
chain: AUAAAAGCGCCAGAACUACAGAAAUGUAGUUGACGAGGAGGAGGUUUAUCGAAUUUUCGGCGGAUGCCUCCAAA

Tests used:
Details in all cases: with glucosamine-6-phosphate
glucosamine-6-phosphate [1] = variants of: B1; test: kcat; higher = faster cleavage; RNA array
How it was run: (§1)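 Barcoded glmS ribozyme variants on sequenced MiSeq chips were transcribed in situ by E. coli RNA polymerase and tracked through a hybridised Cy3 probe at 37 °C. Glucosamine-6-phosphate (40 μM to 10 mM) in HEPES/KCl/Mg(OAc)2 buffer was flowed in, and tiles were imaged over ~14 h. Signals were normalised to baseline and to non-cleaving reference variants; per-tile medians were fit to one- or two-exponential decays to give kobs. kcat and KM came from weighted Michaelis–Menten fits across concentrations.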

glucosamine-6-phosphate [2] = variants of: B1; test: self-cleavage kobs at 10000 uM GlcN6P; higher = faster cleavage; RNA array
How it was run: as §1

glucosamine-6-phosphate [3] = variants of: B1; test: self-cleavage kobs at 160 uM GlcN6P; higher = faster cleavage; RNA array
How it was run: as §1

glucosamine-6-phosphate [4] = variants of: B1; test: KM; higher = weaker cofactor use; RNA array
How it was run: as §1

glucosamine-6-phosphate [5] = variants of: B1; test: self-cleavage kobs at 640 uM GlcN6P; higher = faster cleavage; RNA array
How it was run: as §1

glucosamine-6-phosphate [6] = variants of: B1; test: self-cleavage kobs at 2500 uM GlcN6P; higher = faster cleavage; RNA array
How it was run: as §1

glucosamine-6-phosphate [7] = variants of: B1; test: self-cleavage kobs at 40 uM GlcN6P; higher = faster cleavage; RNA array
How it was run: as §1

| Variant | kcat (glucosamine-6-phosphate [1]) [s⁻¹] | self-cleavage kobs at 10000 uM GlcN6P (glucosamine-6-phosphate [2]) [s⁻¹] | self-cleavage kobs at 160 uM GlcN6P (glucosamine-6-phosphate [3]) [s⁻¹] | KM (glucosamine-6-phosphate [4]) [mM] | self-cleavage kobs at 640 uM GlcN6P (glucosamine-6-phosphate [5]) [s⁻¹] | self-cleavage kobs at 2500 uM GlcN6P (glucosamine-6-phosphate [6]) [s⁻¹] | self-cleavage kobs at 40 uM GlcN6P (glucosamine-6-phosphate [7]) [s⁻¹] |
| --- | --- | --- | --- | --- | --- | --- | --- |
| A33G U57G | 1.21e-05 ± 4.2e-06 | < 1e-05 |  |  |  |  |  |
| G32C A52G | 1.94e-05 ± 5.2e-06 |  |  |  |  |  |  |
| G35A G37A | < 1e-05 |  | < 1e-05 |  |  |  |  |
| A36C C58G | 2.16e-05 ± 5.9e-06 |  |  |  |  |  |  |
| U31C U65C | 5e-05 ± 2.5e-06 | 4.78e-05 ± 6.9e-06 |  | 0.238 ± 0.12 | 3.88e-05 ± 1.4e-05 | 4.75e-05 ± 9.5e-06 |  |
| A36G U69G | 2.8e-05 ± 8.7e-06 |  | 3.18e-05 ± 1.6e-05 |  | 4.85e-05 ± 1.9e-05 |  |  |
| A36G U45A | 3.07e-05 ± 8.9e-06 |  |  |  |  |  |  |
| G32C U45G | 2.74e-05 ± 2.5e-06 |  | < 1e-05 | 2.96 ± 1 |  |  | < 1e-05 |
| G32A C71G | 0.000224 ± 3.5e-05 | 0.000195 ± 2.2e-05 | 5.06e-05 ± 1.5e-05 | 1.19 ± 0.45 | 6.85e-05 ± 1.1e-05 | 0.00018 ± 2.8e-05 |  |
| U31G A64C | 2.01e-05 ± 3.9e-06 |  |  |  |  |  |  |
| G32A C67G | 0.000177 ± 2.7e-05 | 0.000164 ± 2.4e-05 |  | 1.89 ± 0.58 | 4.83e-05 ± 6.9e-06 | 9.14e-05 ± 1.2e-05 | < 1e-05 |
| G32A C67A | 0.000956 ± 0.00011 | 0.000728 ± 8.2e-05 | 5.05e-05 ± 1.6e-05 | 2.73 ± 0.63 | 0.000168 ± 3.4e-05 | 0.000586 ± 0.00011 |  |
| A33C A42G | 0.00107 ± 0.0002 | 0.000716 ± 0.00011 |  | 5.24 ± 1.5 | 0.000127 ± 2e-05 | 0.000266 ± 0.0001 |  |
| A36C A52G | < 1e-05 |  |  |  |  |  |  |
| G32U U54C | 0.000958 ± 0.00028 | 0.000665 ± 8.6e-05 |  | 5.3 ± 2.3 | 0.000126 ± 1.5e-05 | 0.000272 ± 3.3e-05 |  |
| U31C G66U | 0.000326 ± 6.8e-05 | 0.000214 ± 3.5e-05 |  | 4.61 ± 1.7 |  | 0.000124 ± 1.6e-05 |  |
| U31G U47G A48G | 1.96e-05 ± 7.2e-06 |  |  |  |  |  |  |
| G32C G43U | < 1e-05 | < 1e-05 | < 1e-05 |  | < 1e-05 |  | < 1e-05 |
| A33U U49A C58U | < 1e-05 |  |  |  |  |  | < 1e-05 |
| U31G G60A | 1.46e-05 ± 6.5e-06 |  |  |  |  |  |  |
| A33U C50U C68U | 2.95e-05 ± 1.3e-05 |  |  |  | < 1e-05 |  |  |

| Variant | kcat (glucosamine-6-phosphate [1]) [s⁻¹] | self-cleavage kobs at 10000 uM GlcN6P (glucosamine-6-phosphate [2]) [s⁻¹] | self-cleavage kobs at 160 uM GlcN6P (glucosamine-6-phosphate [3]) [s⁻¹] | KM (glucosamine-6-phosphate [4]) [mM] | self-cleavage kobs at 640 uM GlcN6P (glucosamine-6-phosphate [5]) [s⁻¹] | self-cleavage kobs at 2500 uM GlcN6P (glucosamine-6-phosphate [6]) [s⁻¹] | self-cleavage kobs at 40 uM GlcN6P (glucosamine-6-phosphate [7]) [s⁻¹] |
| --- | --- | --- | --- | --- | --- | --- | --- |
| A36G C70G | 1.29e-05 ± 3e-06 |  | < 1e-05 |  |  |  |  |
| C34U C68A | 1.2e-05 ± 1.8e-06 |  |  |  |  |  |  |
| U31G | 0.0277 ± 0.0077 | 0.0227 ± 0.00081 | 0.00114 ± 4.7e-05 | 3.08 ± 1 | 0.00394 ± 0.00013 | 0.0126 ± 0.00057 | 0.000403 ± 7.4e-06 |
| C34U A48G C68A | < 1e-05 |  |  |  |  | < 1e-05 | < 1e-05 |
| U31G A53U | 0.019 ± 0.0084 | 0.0128 ± 0.0024 |  |  | 0.00281 ± 0.00087 | 0.00587 ± 0.002 | 0.000188 ± 3e-05 |
| A33C G37A | < 1e-05 |  | < 1e-05 |  |  |  | < 1e-05 |
| G37A A53U | 0.00237 ± 0.00046 | 0.00185 ± 0.00023 | 9.91e-05 ± 1.2e-05 | 3.52 ± 0.93 | 0.000367 ± 3.5e-05 | 0.000924 ± 0.0001 | 4.73e-05 ± 1.1e-05 |
| G37A A53C | 0.000609 ± 7.9e-05 | 0.000468 ± 5.8e-05 |  | 3.03 ± 0.74 | 0.00012 ± 2.1e-05 | 0.00027 ± 3.6e-05 |  |
| G32A C58G | 0.000211 ± 4.8e-05 | 0.000129 ± 1.7e-05 |  | 6.46 ± 3.2 |  | 5.76e-05 ± 1.7e-05 |  |
| C34U U69C | < 1e-05 |  |  |  |  |  |  |
| A36U U54A | < 1e-05 |  |  |  |  |  |  |
| A33U C68U | 1.75e-05 ± 1.6e-06 |  |  |  |  |  | < 1e-05 |
| A36U C50G U69G | 0.000296 ± 5.6e-05 | 0.000368 ± 8.1e-05 | 0.000219 ± 6e-05 |  | 0.00036 ± 0.00012 | 0.000275 ± 0.00013 | 0.000397 ± 0.00012 |
| A33G G60C | < 1e-05 |  | < 1e-05 |  | < 1e-05 |  |  |
| C34G C70G | 1.99e-05 ± 6.6e-07 |  |  | 0.234 ± 0.089 |  |  |  |
| G32A G40C | 0.00047 ± 8.1e-05 | 0.000309 ± 3.3e-05 |  | 5.73 ± 1.6 | 5.53e-05 ± 9.2e-06 | 0.000126 ± 1.8e-05 |  |
| A33U A42G | 0.000108 ± 7.3e-06 | 8.89e-05 ± 3e-05 |  | 2 ± 0.35 |  | 6.02e-05 ± 1.3e-05 |  |
| A36G C67A | < 1e-05 |  |  |  |  |  |  |
| G35C C50G | 0.000276 ± 6.8e-05 | 0.000205 ± 1.5e-05 | 7.69e-05 ± 3.7e-05 |  | 4.8e-05 ± 1.6e-05 | 0.000107 ± 1.2e-05 | 3.26e-05 ± 1.4e-05 |
| G32U C50G C71G | 0.000195 ± 2.4e-05 | 0.000231 ± 5.8e-05 |  |  | 0.000151 ± 6.3e-05 | 0.000194 ± 6.4e-05 | 0.000189 ± 5.1e-05 |

Reference: the supplement of paper PMC7125110
